Measured values published in US20200405868A1, “GEL-FORMING POLYPEPTIDES” (priority 2018, published 2020).
Read-outs that look alike come from different tables or passages of the source. Blank lines part the entries; values can stand above or below the compound they belong to.

Assays:
[1] = target: melanocortin receptor 1 (MC1R) (Homo sapiens, UniProt Q01726); test: MC1R cAMP assay (Discoverx), agonistic; format: cell-based
Description: The agonistic activities toward MC1R, MC4R, CRHR2, PTHR1, and OPRK1 were assyed with an MC1R cAMP assay, an MC4R cAMP assay, a CRHR2 cAMP assay, a PTHR1 cAMP assay and an OPRK1 cAMP assay from Discoverx Inc. (Fremont, Calif.), respectively. The antagonistic activities toward bradykinin receptor 2 (BDKRB2) and GnRH receptor (GnRHR or LHRHR) were assayed with a BDKRB2 arrestin assay and a GnRHR calcium flux assay from Discoverx, respectively.
For the analysis of Gs-coupled cAMP production, cAMP Hunter cell lines were expanded from freezer stocks, and cells were seeded in a total volume of 20 μL into white walled, 384-well microplates and incubated at 37 C for the appropriate time prior to testing. The cAMP modulation was determined using the DiscoverX HitHunter cAMP XS+ assay. For agonistic activity determination, cells were incubated with sample to induce response. Media was aspirated from cells and replaced with 15 μL 2:1 HBSS/10 mM Hepes: cAMP XS+ Ab reagent. Intermediate dilution of sample stocks was performed to generate 4× sample in assay buffer, and 5 μL of 4× sample was added to cells and incubated at 37 C or room temperature for 30 or 60 minutes. Vehicle concentration was 1%. The compound activity was analyzed using a CBIS data analysis suite (ChemInnovation, CA). For Gs-coupled agonistic assays, percentage activity is calculated using the following formula: % Activity=100%×(mean RLU of test sample−mean RLU of vehicle control)/(mean RLU of MAX control−mean RLU of vehicle control).

[2] = Compound gel-forming ability in water (visual inspection, tube tapping assay, tilted tube assay); format: physicochemical; settings: for gel formation in aqueous solution, 11% / gel formation in aqueous solution, 3% / gel formation in aqueous solution, 6% / gel formation in aqueous solution, 20%: Table 3; for gel formation in aqueous solution, 11% / propensity to form gels, chimeric or mutated polypeptides, 11% / propensity to form gels, wild-type counterparts, 11%: 11% w/w; for gel formation at 6% w/w: 6% w/w in water; for gel formation at 11% w/w: 11% w/w in water; for gel formation in aqueous solution, 3% / propensity to form gels, chimeric or mutated polypeptides, 3%: 3% w/w; for Physical property at 11% w/w: 11% w/w in aqueous solution, room temperature; for gel formation at 20% w/w: 20% w/w in water;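 as to all read-outs here: peptides mixed with de-ionized water at about 22-25 °C, judged after 20 min by eye plus tube tapping (10 taps, moves counted) and 90° tilt mobility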

Sequence of melanocortin receptor 1 (MC1R) (Q01726 whole entry): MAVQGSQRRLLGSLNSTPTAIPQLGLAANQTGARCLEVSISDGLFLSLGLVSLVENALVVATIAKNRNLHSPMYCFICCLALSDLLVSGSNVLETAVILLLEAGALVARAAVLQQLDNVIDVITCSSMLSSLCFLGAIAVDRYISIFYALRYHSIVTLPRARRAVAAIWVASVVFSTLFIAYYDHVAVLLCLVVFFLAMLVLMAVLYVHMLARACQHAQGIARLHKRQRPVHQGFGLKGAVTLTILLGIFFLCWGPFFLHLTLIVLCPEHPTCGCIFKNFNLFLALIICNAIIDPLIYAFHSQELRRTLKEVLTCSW

EC50 [1]: subnanomolar
Max Activity % of positive control [1]: 120 % of positive control
EC50 ([1]; read-out: EC50): < 0.05 nM
Compound: CCCCCCCCCCCCCCCC(=O)N[C@@H](Cc1c[nH]cn1)C(=O)N[C@@H](CO)C(=O)N[C@@H](Cc1ccc(O)cc1)C(=O)N[C@@H](CO)C(=O)N[C@@H](CCCC)C(=O)N[C@@H](CCC(=O)O)C(=O)N[C@@H](Cc1c[nH]cn1)C(=O)N[C@H](Cc1ccccc1)C(=O)N[C@@H](CCCNC(=N)N)C(=O)N[C@@H](Cc1c[nH]c2ccccc12)C(=O)NCC(=O)N[C@@H](CCCCN)C(=O)N1CCC[C@H]1C(=O)N[C@H](C(N)=O)C(C)C [SEQ ID NO:224, Pal-HSYS-Nle-EH-(D-Phe)-RWGKPV-NH2]

gel formation in aqueous solution, 11% [2]: SS (SS for semisolid gel)
EC50 [1]: nanomolar
Max Activity % of positive control [1]: 115 % of positive control
Compound: CCCCCCCCCCCCCCCC(=O)N[C@@H](Cc1c[nH]cn1)C(=O)N[C@@H](CO)C(=O)N[C@@H](Cc1ccc(O)cc1)C(=O)N[C@@H](CO)C(=O)N[C@@H](CCSC)C(=O)N[C@@H](CCC(=O)O)C(=O)N[C@@H](Cc1c[nH]cn1)C(=O)N[C@@H](Cc1ccccc1)C(=O)N[C@@H](CCCNC(=N)N)C(=O)N[C@@H](Cc1c[nH]c2ccccc12)C(=O)NCC(=O)N[C@@H](CCCCN)C(=O)N1CCC[C@H]1C(=O)N[C@H](C(=O)NCC(=O)N[C@@H](CCCCN)C(=O)N[C@@H](CCCCN)C(=O)N[C@@H](CCCNC(=N)N)C(=O)N[C@@H](CCCNC(=N)N)C(=O)N1CCC[C@H]1C(=O)N[C@H](C(=O)N[C@@H](CCCCN)C(=O)N[C@H](C(=O)N[C@@H](Cc1ccc(O)cc1)C(=O)N1CCC[C@H]1C(=O)O)C(C)C)C(C)C)C(C)C [SEQ ID NO:226]
propensity to form gels, chimeric or mutated polypeptides, 11% ([2]; Table 5): SS (An ability to form semisolid gel is represented by an SS)

Compound: Pal-KVQKLSAPVDPSSPHSY-miniPEG-EHWSY-(D-2Nal)-LRPG-NH2 [SEQ ID NO:201]
gel formation at 3% w/w ([2]; 3% w/w in water): semisolid gel
gel formation at 6% w/w [2]: semisolid gel
gel formation at 11% w/w [2]: semisolid gel
gel formation in aqueous solution, 3% [2]: SS (SS for semisolid gel)
gel formation in aqueous solution, 6% ([2]; 6% w/w): SS (SS for semisolid gel)
gel formation in aqueous solution, 11% [2]: SS (SS for semisolid gel)
propensity to form gels, chimeric or mutated polypeptides, 3% ([2]; Table 5): SS (An ability to form semisolid gel is represented by an SS)
propensity to form gels, chimeric or mutated polypeptides, 6% ([2]; Table 5, 6% w/w): SS (An ability to form semisolid gel is represented by an SS)
propensity to form gels, chimeric or mutated polypeptides, 11% ([2]; Table 5): SS (An ability to form semisolid gel is represented by an SS)

gel formation at 6% w/w [2]: does not form gel
gel formation at 11% w/w [2]: semisolid gel
Physical property at 11% w/w ([2]; Table 1): SS (SS for semisolid gel)
gel formation in aqueous solution, 20% ([2]; 20% w/w): SS (SS for semisolid gel)
propensity to form gels, wild-type counterparts, 6% ([2]; Table 5, 6% w/w): AS/IS
Compound: CC[C@H](C)[C@H](NC(=O)[C@@H]1CCCN1C(=O)CNC(=O)[C@H](Cc1ccccc1)NC(=O)[C@H](CC(N)=O)NC(=O)[C@H](CC(N)=O)NC(=O)[C@H](CO)NC(=O)[C@H](CO)NC(=O)[C@H](Cc1c[nH]cn1)NC(=O)[C@@H](NC(=O)[C@H](CC(C)C)NC(=O)[C@H](Cc1ccccc1)NC(=O)[C@H](CC(N)=O)NC(=O)[C@H](C)NC(=O)[C@H](CC(C)C)NC(=O)[C@H](CCCNC(=N)N)NC(=O)[C@H](CCC(N)=O)NC(=O)[C@@H](NC(=O)[C@H](C)NC(=O)[C@@H]1CSSC[C@H](NC(=O)[C@@H](N)CCCCN)C(=O)N[C@@H](CC(N)=O)C(=O)N[C@@H]([C@@H](C)O)C(=O)N[C@@H](C)C(=O)N[C@@H]([C@@H](C)O)C(=O)N1)[C@@H](C)O)C(C)C)C(=O)N[C@@H](CC(C)C)C(=O)N1CCC[C@H]1C(=O)N1CCC[C@H]1C(=O)N[C@H](C(=O)N[C@@H](CC(N)=O)C(=O)N[C@H](C(=O)NCC(=O)N[C@@H](CO)C(=O)N[C@@H](CC(N)=O)C(=O)N[C@H](C(=O)N[C@@H](Cc1ccc(O)cc1)C(N)=O)[C@@H](C)O)C(C)C)[C@@H](C)O [SEQ ID NO:4, reference compound]
gel formation in aqueous solution, 11% [2]: AS/IS (AS/IS for aqueous solution or insoluble)
propensity to form gels, wild-type counterparts, 11% ([2]; Table 5): SS (An ability to form semisolid gel is represented by an SS)

Compound: EAYKAAEKAYAAKEAAKEAAKAKAEKKAAYAKAKAAKYEKKAKKAAAEYKKK [SEQ ID NO:42, reference compound]
gel formation at 11% w/w [2]: does not form gel
gel formation at 20% w/w [2]: does not form gel
Physical property at 11% w/w ([2]; Table 1): AS/IS
gel formation in aqueous solution, 11% [2]: AS/IS (AS/IS for aqueous solution or insoluble)
gel formation in aqueous solution, 20% ([2]; 20% w/w): AS/IS (AS/IS for aqueous solution or insoluble)
propensity to form gels, wild-type counterparts, 11% ([2]; Table 5): AS/IS
propensity to form gels, wild-type counterparts, 20% ([2]; Table 5, 20% w/w): AS/IS

Compound: Ace-NFVPTNVGPFAF-NH2 (Ac-NFVPTNVGPFAF-NH2) [SEQ ID NO:134]
Physical property at 11% w/w ([2]; Table 2): AS/IS (AS/IS for aqueous solution or insoluble)

Compound: Pal-KVQKLSAPVDPSSPHSY-miniPEG-(D-Tyr)QWAV(β-Ala)HF(Nle)-NH2 [SEQ ID NO:209]
gel formation in aqueous solution, 3% [2]: SS (SS for semisolid gel)
gel formation in aqueous solution, 6% ([2]; 6% w/w): SS (SS for semisolid gel)
gel formation in aqueous solution, 11% [2]: SS (SS for semisolid gel)
propensity to form gels, chimeric or mutated polypeptides, 3% ([2]; Table 5): SS (An ability to form semisolid gel is represented by an SS)
propensity to form gels, chimeric or mutated polypeptides, 6% ([2]; Table 5, 6% w/w): SS (An ability to form semisolid gel is represented by an SS)
propensity to form gels, chimeric or mutated polypeptides, 11% ([2]; Table 5): SS (An ability to form semisolid gel is represented by an SS)

Compound: FKFEFKFE-miniPEG-RPKPQQFFGLM-NH2 [SEQ ID NO:284]
gel formation in aqueous solution, 6% ([2]; 6% w/w): AS/IS (AS/IS for aqueous solution or insoluble)
gel formation in aqueous solution, 11% [2]: AS/IS (AS/IS for aqueous solution or insoluble)

gel formation at 20% w/w [2]: semisolid or liquid gel
propensity to form gels, chimeric or mutated polypeptides, 11% ([2]; Table 5): AS/IS
Compound: Pal-HSYSLDVPIGLLQILLEQARARAAREQATTNARILARVGHC-NH2 [SEQ ID NO:265]
gel formation in aqueous solution, 11% [2]: AS/IS (AS/IS for aqueous solution or insoluble)

Physical property at 11% w/w ([2]; Table 2): SS (SS for semisolid gel)
Compound: Pal-KSY-NH2 [SEQ ID NO:121]
